Earlier results in PMC11442857.

Target: Bovine serum albumin, fatty-acid-free (FAF-BSA) (UniProt P02769)
Experiment: Analytical ultracentrifugation, sedimentation equilibrium
Conditions: pH 7.2, 10 °C, PBS (concentration not stated)

Chain of UniProt P02769 (P02769 whole entry): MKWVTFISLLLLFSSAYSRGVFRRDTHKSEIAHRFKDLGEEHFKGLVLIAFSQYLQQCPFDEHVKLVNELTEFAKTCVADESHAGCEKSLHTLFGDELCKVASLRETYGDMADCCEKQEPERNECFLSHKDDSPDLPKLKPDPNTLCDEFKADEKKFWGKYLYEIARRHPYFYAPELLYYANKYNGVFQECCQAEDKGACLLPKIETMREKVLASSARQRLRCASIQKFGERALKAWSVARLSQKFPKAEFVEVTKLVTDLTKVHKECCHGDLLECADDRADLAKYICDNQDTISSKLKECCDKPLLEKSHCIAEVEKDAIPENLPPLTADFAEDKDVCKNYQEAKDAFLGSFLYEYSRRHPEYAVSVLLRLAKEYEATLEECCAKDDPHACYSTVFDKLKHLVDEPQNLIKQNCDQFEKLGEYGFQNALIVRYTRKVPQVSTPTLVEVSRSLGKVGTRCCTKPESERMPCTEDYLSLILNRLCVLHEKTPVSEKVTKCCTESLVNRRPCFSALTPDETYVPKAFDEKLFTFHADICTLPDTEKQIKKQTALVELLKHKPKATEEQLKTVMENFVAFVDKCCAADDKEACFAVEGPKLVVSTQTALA

For “Bovine serum albumin, fatty-acid-free (FAF-BSA)”, which Kd dimer is on record?
Its Kd dimer is 4.5 mM.
